Measurements published in US20110301073.

Columns and labels:
[1] = system: TALEN 101234 (HD half repeat) (synthetic (Xanthomonas TALE)); test: cell_activity; details: paired with 101231
[2] = system: TALEN 101124 (synthetic (Xanthomonas TALE)); test: cell_activity; details: paired with 101126
[3] = system: nR23570S-dNC (17.5 repeats without N- and C-caps) (Xanthomonas sp. (engineered)); test: cell_activity; details: mock 1.48; caps deleted
[4] = system: R0-VP16 (no tandem repeats) (Xanthomonas sp. (engineered)); test: cell_activity; details: no tandem repeats
[5] = system: TALE test backbone, repeat 5 RVD IG (synthetic (Xanthomonas TALE)); details: ELISA
[6] = system: TALE test backbone, repeat 5 RVD HD, standard framework (SEQ 333) (Xanthomonas sp. (engineered)); details: RVD HD
[7] = system: TALE test backbone, repeat 5 RVD GG (synthetic (Xanthomonas TALE)); details: ELISA
[8] = system: TALE test backbone, repeat 5 RVD AA (synthetic (Xanthomonas TALE)); details: ELISA
[9] = system: TALE test backbone, repeat 5 RVD NK (Xanthomonas sp. (engineered)); details: RVD NK; other bases 0.00
[10] = system: TALE test backbone, repeat 5 RVD QG (synthetic (Xanthomonas TALE)); details: ELISA
[11] = system: TALE test backbone, repeat 5 RVD RI (synthetic (Xanthomonas TALE)); details: ELISA
[12] = system: TALE test backbone, repeat 5 RVD KS (synthetic (Xanthomonas TALE)); details: ELISA
[13] = system: TALE test backbone, repeat 5 RVD SG (synthetic (Xanthomonas TALE)); details: ELISA
[14] = system: TALE test backbone, repeat 5 RVD VG (synthetic (Xanthomonas TALE)); details: ELISA
[15] = system: TALE test backbone, repeat 5 RVD HI (synthetic (Xanthomonas TALE)); details: ELISA
[16] = system: TALE test backbone, repeat 5 RVD RG (synthetic (Xanthomonas TALE)); details: ELISA
[17] = system: TALE test backbone, repeat 5 RVD TA (synthetic (Xanthomonas TALE)); details: ELISA
[18] = system: TALE test backbone, repeat 5 RVD KI (synthetic (Xanthomonas TALE)); details: ELISA
[19] = system: TALE test backbone, repeat 5 RVD HA (synthetic (Xanthomonas TALE)); details: ELISA
[20] = system: TALE test backbone, repeat 5 RVD LA (synthetic (Xanthomonas TALE)); details: ELISA
[21] = system: TALE test backbone, repeat 5 RVD KT (synthetic (Xanthomonas TALE)); details: ELISA
[22] = system: TALE test backbone, repeat 5 RVD KG (synthetic (Xanthomonas TALE)); details: ELISA
[23] = system: TALE test backbone, repeat 5 RVD NS (synthetic (Xanthomonas TALE)); details: ELISA
[24] = system: TALE test backbone, repeat 5 RVD AT (synthetic (Xanthomonas TALE)); details: ELISA
[25] = system: TALE test backbone, repeat 5 RVD NA (synthetic (Xanthomonas TALE)); details: ELISA
[26] = system: TALE test backbone, repeat 5 RVD NI (Xanthomonas sp. (engineered)); details: RVD NI
[27] = system: TALE test backbone, repeat 5 RVD AD (synthetic (Xanthomonas TALE)); details: ELISA
[28] = system: TALE test backbone, repeat 5 RVD YG (synthetic (Xanthomonas TALE)); details: ELISA
[29] = system: TALE test backbone, repeat 5 RVD KD (synthetic (Xanthomonas TALE)); details: ELISA
[30] = system: TALE test backbone, repeat 5 RVD IA (synthetic (Xanthomonas TALE)); details: ELISA
[31] = system: TALE test backbone, repeat 5 RVD KN (Xanthomonas sp. (engineered)); details: RVD KN
[32] = system: TALE test backbone, repeat 5 RVD IP (synthetic (Xanthomonas TALE)); details: ELISA
[33] = system: TALE test backbone, repeat 5 RVD HG (synthetic (Xanthomonas TALE)); details: ELISA
[34] = system: TALE test backbone, repeat 5 RVD HN (synthetic (Xanthomonas TALE)); details: ELISA
[35] = system: TALE test backbone, repeat 5 RVD TP (synthetic (Xanthomonas TALE)); details: ELISA
[36] = system: TALE test backbone, repeat 5 RVD AK (Xanthomonas sp. (engineered)); details: RVD AK; other bases 0.00-0.01
[37] = system: TALE test backbone, repeat 5 RVD NN (Xanthomonas sp. (engineered)); details: RVD NN
[38] = system: TALE test backbone, repeat 5 RVD ND (synthetic (Xanthomonas TALE)); details: ELISA
[39] = system: TALE test backbone, repeat 5 RVD RA (synthetic (Xanthomonas TALE)); details: ELISA
[40] = system: TALE test backbone, repeat 5 RVD DK (synthetic (Xanthomonas TALE)); details: ELISA
[41] = system: TALE test backbone, repeat 5 RVD QA (synthetic (Xanthomonas TALE)); details: ELISA
[42] = system: TALE test backbone, repeat 5 RVD DH (Xanthomonas sp. (engineered)); details: RVD DH
[43] = system: TALE test backbone, repeat 5 RVD AE (synthetic (Xanthomonas TALE)); details: ELISA
[44] = system: TALE test backbone, repeat 5 RVD SN (Xanthomonas sp. (engineered)); details: RVD SN
[45] = system: TALE test backbone, repeat 5 RVD AN (synthetic (Xanthomonas TALE)); details: ELISA
[46] = system: TALE13 C+17 FokI (Xanthomonas axonopodis); test: cleavage_in_vitro; details: two sites, 12 bp spacer
[47] = system: TALE13 C-2 FokI (Xanthomonas axonopodis); test: cleavage_in_vitro; details: two sites, 12 bp spacer
[48] = system: TALE13 C+11 FokI (Xanthomonas axonopodis); test: cleavage_in_vitro; details: two sites, 12 bp spacer
[49] = system: TALE13 C+5 FokI (Xanthomonas axonopodis); test: cleavage_in_vitro; details: two sites, 12 bp spacer
[50] = system: TALE test backbone, repeat 5 RVD IA (Xanthomonas sp. (engineered)); details: RVD IA
[51] = system: TALE test backbone, repeat 5 RVD SN (synthetic (Xanthomonas TALE)); details: ELISA
[52] = system: TALE test backbone, repeat 5 RVD DH (synthetic (Xanthomonas TALE)); details: ELISA
[53] = system: TALE test backbone, repeat 5 RVD VG (Xanthomonas sp. (engineered)); details: RVD VG
[54] = system: TALE test backbone, repeat 5 RVD TP (Xanthomonas sp. (engineered)); details: RVD TP
[55] = system: TALE test backbone, repeat 5 RVD NG (Xanthomonas sp. (engineered)); details: RVD NG
[56] = system: TALEN 101126 (synthetic (Xanthomonas TALE)); test: cell_activity; details: paired with 101124

ACCGCTGTGCTCCTGGC (double strand) [101234 site]
activity [1]: 10 % NHEJ

GCAGCTGCCCAGACCT (double strand) [101124 site]
activity [2]: 2.2 % NHEJ

GGAGCCATCTGGCCGGGT (double strand) [NT-L target (NTF3 promoter)]
activity (fold activation) [3]: 1.96
activity (fold activation) [4]: 1

TTGACGATCCT (double strand) [CGA target]
binding signal (normalized ELISA) [5]: 0.01
binding signal (normalized ELISA) [6]: 0
binding signal (normalized ELISA) [7]: 0.25
binding signal (normalized ELISA) [8]: 0.06
binding signal (normalized ELISA) [9]: 0.15
binding signal (normalized ELISA) [10]: 0.05
binding signal (normalized ELISA) [11]: 0.02
binding signal (normalized ELISA) [12]: 0.74
binding signal (normalized ELISA) [13]: 0.2
binding signal (normalized ELISA) [14]: 0.01
binding signal (normalized ELISA) [15]: 0.04
binding signal (normalized ELISA) [16]: 0.12
binding signal (normalized ELISA) [17]: 0.01
binding signal (normalized ELISA) [18]: 0.02
binding signal (normalized ELISA) [19]: 0.24
binding signal (normalized ELISA) [20]: 0
binding signal (normalized ELISA) [21]: 0.83
binding signal (normalized ELISA) [22]: 0.2
binding signal (normalized ELISA) [23]: 0.71
binding signal (normalized ELISA) [24]: 0.76
binding signal (normalized ELISA) [25]: 0.41
binding signal (normalized ELISA) [26]: 0.02
binding signal (normalized ELISA) [27]: 0
binding signal (normalized ELISA) [28]: 0.01
binding signal (normalized ELISA) [29]: 0
binding signal (normalized ELISA) [30]: 0.02
binding signal (normalized ELISA) [31]: 1
binding signal (normalized ELISA) [32]: 0
binding signal (normalized ELISA) [33]: 0.11
binding signal (normalized ELISA) [34]: 0.86
binding signal (normalized ELISA) [35]: 0.01
binding signal (normalized ELISA) [36]: 0.21
binding signal (normalized ELISA) [37]: 0.81
binding signal (normalized ELISA) [38]: 0
binding signal (normalized ELISA) [39]: 0.53
binding signal (normalized ELISA) [40]: 0.15
binding signal (normalized ELISA) [41]: 0.03
binding signal (normalized ELISA) [42]: 0.36
binding signal (normalized ELISA) [43]: 0
binding signal (normalized ELISA) [44]: 0.92
binding signal (normalized ELISA) [45]: 0.87

TATAAATACCTTCT (double strand) [TALE13 target]
activity [46]: 97.8 % cleavage
activity [47]: 1.1 % cleavage
activity [48]: 98.5 % cleavage
activity [49]: 99.3 % cleavage

TTGACTATCCT (double strand) [CTA target]
binding signal (normalized ELISA) [5]: 0.68
binding signal (normalized ELISA) [6]: 0.09
binding signal (normalized ELISA) [50]: 1.2
binding signal (normalized ELISA) [7]: 1.52
binding signal (normalized ELISA) [8]: 0.61
binding signal (normalized ELISA) [10]: 1.09
binding signal (normalized ELISA) [11]: 0.02
binding signal (normalized ELISA) [12]: 0.81
binding signal (normalized ELISA) [13]: 1.23
binding signal (normalized ELISA) [15]: 0.04
binding signal (normalized ELISA) [16]: 0.87
binding signal (normalized ELISA) [17]: 0.76
binding signal (normalized ELISA) [18]: 0.04
binding signal (normalized ELISA) [19]: 1.54
binding signal (normalized ELISA) [20]: 0.51
binding signal (normalized ELISA) [21]: 0.67
binding signal (normalized ELISA) [22]: 1.29
binding signal (normalized ELISA) [23]: 0.54
binding signal (normalized ELISA) [24]: 0.56
binding signal (normalized ELISA) [25]: 1.72
binding signal (normalized ELISA) [51]: 0.02
binding signal (normalized ELISA) [52]: 0.03
binding signal (normalized ELISA) [53]: 0.56
binding signal (normalized ELISA) [26]: 0.02
binding signal (normalized ELISA) [27]: 0.01
binding signal (normalized ELISA) [28]: 0.79
binding signal (normalized ELISA) [29]: 0.05
binding signal (normalized ELISA) [32]: 0.84
binding signal (normalized ELISA) [33]: 1.49
binding signal (normalized ELISA) [34]: 0.01
binding signal (normalized ELISA) [54]: 1.2
binding signal (normalized ELISA) [55]: 1.3
binding signal (normalized ELISA) [38]: 0.02
binding signal (normalized ELISA) [39]: 1.64
binding signal (normalized ELISA) [40]: 0
binding signal (normalized ELISA) [41]: 1.24
binding signal (normalized ELISA) [43]: 0
binding signal (normalized ELISA) [45]: 0.01

GACCCTGCCTGCT (double strand) [101126 site]
activity [56]: 2.2 % NHEJ
